In US20200277399A1:

Assays:
[1] = molecular target: 2F5 antibody; test: ELISA on coated 2F5; Fc variant 10 ug/ml
[2] = molecular target: 2F5 antibody; test: ELISA on coated 2F5; Fc variant 0.37037037 ug/ml
[3] = molecular target: 2F5 antibody; test: ELISA on coated 2F5; Fc variant 0.00457247 ug/ml
[4] = molecular target: 2F5 antibody; test: ELISA on coated 2F5; Fc variant 0.12345679 ug/ml
[5] = molecular target: 2F5 antibody; test: ELISA on coated 2F5; Fc variant 1.11111111 ug/ml
[6] = molecular target: 2F5 antibody; test: ELISA on coated 2F5; Fc variant 0.04115226 ug/ml
[7] = molecular target: 2F5 antibody; test: ELISA on coated 2F5; Fc variant 3.33333333 ug/ml
[8] = molecular target: 2F5 antibody; test: ELISA on coated 2F5; Fc variant 0.01371742 ug/ml

## Fc_ELDKWA_FG (from UniProt P0DOX5 227-449)
[1]
  absorbance: 1.4
[2]
  absorbance: 0.297
[3]
  absorbance: 0.012
[4]
  absorbance: 0.108
[5]
  absorbance: 0.706
[6]
  absorbance: 0.0365
[7]
  absorbance: 1.32
[8]
  absorbance: 0.0215

## Fc_ELDKWA_DE (from UniProt P0DOX5 227-449)
[1]
  absorbance: 1.25
[2]
  absorbance: 0.185
[3]
  absorbance: 0.0177
[4]
  absorbance: 0.0673
[5]
  absorbance: 0.495
[6]
  absorbance: 0.038
[7]
  absorbance: 0.846
[8]
  absorbance: 0.0283

## Fc_ELDKWA_BC (from UniProt P0DOX5 227-449)
[1]
  absorbance: 0.619
[2]
  absorbance: 0.047
[3]
  absorbance: 0.0133
[4]
  absorbance: 0.0213
[5]
  absorbance: 0.091
[6]
  absorbance: 0.0197
[7]
  absorbance: 0.232
[8]
  absorbance: 0.0107
